Results from US20220040297A1 (Chugai, published 2022).

Tests used:
CD3ε homodimer protein [1] = molecular target: T1, CD3ε homodimer protein (human, UniProt P07766 23-126, limits assumed, sulfo-tag or biotin label in some ECL assays); assay: SPR, CD3ε homodimer on chip;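 further: biacore SPR with antibody variants flowed as analyte over amine-coupled CD3ε homodimer on a CM chip, bound amount of each single-residue H chain variant over that of parent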
T1 construct: also called human CD3ε homodimer protein; CD3 (CD3ε)
T1 sequence (P07766 23-126 limits assumed): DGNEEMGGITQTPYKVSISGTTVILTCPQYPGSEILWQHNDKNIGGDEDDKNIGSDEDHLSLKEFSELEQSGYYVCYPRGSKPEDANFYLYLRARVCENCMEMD
Protocol: An appropriate amount of CD3ε homodimer protein was immobilized onto Sensor chip CM4 (GE Healthcare Japan Corp.) by the amine coupling method. Then, the antibody having an appropriate concentration was injected thereto as an analyte and allowed to interact with the CD3ε homodimer protein on the sensor chip. Then, the sensor chip was regenerated by the injection of 10 mmol/L glycine-HCl (pH 1.5). The assay was conducted at 25° C., and HBS-EP+ (GE Healthcare Japan Corp.) was used as a running buffer. […] Each parameter was calculated using Biacore T200 Evaluation Software (GE Healthcare Japan Corp.).
Specifically, when the amount of the antibody comprising CE115HA000 bound was defined as X and the amount of the H chain one-amino acid altered form bound was defined as Y, a value of Z (ratio of amounts bound)=Y/X was used.

CD3ε homodimer protein [2] = molecular target: CD3ε homodimer protein (human, UniProt P07766 23-126, limits assumed); assay: SPR, immobilized CD3ε homodimer;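 further: biacore T200 surface plasmon resonance at 25 °C, antibody variants flowed as analytes over amine-coupled CD3ε homodimer on a CM4 chip, variant binding amount divided by that of GLS3000 antibody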
CD3ε homodimer protein (human, UniProt P07766 23-126, limits assumed), sequence (P07766 23-126 limits assumed): as above

Binder | ratio of amounts bound vs CE115HA000 (CD3ε homodimer protein [1]) | ratio of amounts bound (vs GLS3000) (CD3ε homodimer protein [2])
CE115HA000 H35A (antibody, name in Kabat numbering, V domains shown) VH: QVQLVESGGGVVQPGRSLRLSCAASGFTFSNAWMAWVRQAPGKGLEWVAQIKAKSNNYATYYAESVKGRFTISRDDSKNSLYLQMNSLKTEDTAVYYCRYVHYGAYYGVDAWGQGTTVTVSS VL: DIVMTQSPLSLPVTPGEPASISCRSSQSLVHSNRNTYLHWYQQKPGQAPRLLIYKVSNRFSGVPDRFSGSGSGTDFTLKISRVEAEDVGVYYCGQGTQVPYTFGQGTKLEIK | 0.17 | 
GLS3000 V94Y (antibody, name in Kabat numbering, V domains shown, one-arm format as m2) VH: QVQLVESGGGVVQPGRSLRLSCAASGFTFSNAWMHWVRQAPGKGLEWVAQIKAKSNNYATYYAESVKGRFTISRDDSKNSLYLQMNSLKTEDTAVYYCRYVHYGAYYGVDAWGQGTTVTVSS VL: DIVMTQSPLSLPVTPGEPASISCRSSQSLVHSNRNTYLHWYQQKPGQAPRLLIYKVSNRFSGVPDRFSGSGSGTDFTLKISRVEAEDVGVYYCGQGTQYPYTFGQGTKLEIK |  | 0.63
CE115HA000 A52aP (antibody, name in Kabat numbering, V domains shown) VH: QVQLVESGGGVVQPGRSLRLSCAASGFTFSNAWMHWVRQAPGKGLEWVAQIKPKSNNYATYYAESVKGRFTISRDDSKNSLYLQMNSLKTEDTAVYYCRYVHYGAYYGVDAWGQGTTVTVSS VL: DIVMTQSPLSLPVTPGEPASISCRSSQSLVHSNRNTYLHWYQQKPGQAPRLLIYKVSNRFSGVPDRFSGSGSGTDFTLKISRVEAEDVGVYYCGQGTQVPYTFGQGTKLEIK | 0.15 | 
GLS3000 Y32A (antibody, name in Kabat numbering, V domains shown, one-arm format as m2) VH: QVQLVESGGGVVQPGRSLRLSCAASGFTFSNAWMHWVRQAPGKGLEWVAQIKAKSNNYATYYAESVKGRFTISRDDSKNSLYLQMNSLKTEDTAVYYCRYVHYGAYYGVDAWGQGTTVTVSS VL: DIVMTQSPLSLPVTPGEPASISCRSSQSLVHSNRNTALHWYQQKPGQAPRLLIYKVSNRFSGVPDRFSGSGSGTDFTLKISRVEAEDVGVYYCGQGTQVPYTFGQGTKLEIK |  | 0.24
CE115HA000 A52aS (antibody, name in Kabat numbering, V domains shown) VH: QVQLVESGGGVVQPGRSLRLSCAASGFTFSNAWMHWVRQAPGKGLEWVAQIKSKSNNYATYYAESVKGRFTISRDDSKNSLYLQMNSLKTEDTAVYYCRYVHYGAYYGVDAWGQGTTVTVSS VL: DIVMTQSPLSLPVTPGEPASISCRSSQSLVHSNRNTYLHWYQQKPGQAPRLLIYKVSNRFSGVPDRFSGSGSGTDFTLKISRVEAEDVGVYYCGQGTQVPYTFGQGTKLEIK | 1.05 | 
CE115HA000 A32Y (antibody, name in Kabat numbering, V domains shown) VH: QVQLVESGGGVVQPGRSLRLSCAASGFTFSNYWMHWVRQAPGKGLEWVAQIKAKSNNYATYYAESVKGRFTISRDDSKNSLYLQMNSLKTEDTAVYYCRYVHYGAYYGVDAWGQGTTVTVSS VL: DIVMTQSPLSLPVTPGEPASISCRSSQSLVHSNRNTYLHWYQQKPGQAPRLLIYKVSNRFSGVPDRFSGSGSGTDFTLKISRVEAEDVGVYYCGQGTQVPYTFGQGTKLEIK | 0.33 | 
GLS3000 V94T (antibody, name in Kabat numbering, V domains shown, one-arm format as m2) VH: QVQLVESGGGVVQPGRSLRLSCAASGFTFSNAWMHWVRQAPGKGLEWVAQIKAKSNNYATYYAESVKGRFTISRDDSKNSLYLQMNSLKTEDTAVYYCRYVHYGAYYGVDAWGQGTTVTVSS VL: DIVMTQSPLSLPVTPGEPASISCRSSQSLVHSNRNTYLHWYQQKPGQAPRLLIYKVSNRFSGVPDRFSGSGSGTDFTLKISRVEAEDVGVYYCGQGTQTPYTFGQGTKLEIK |  | 0.93
GLS3000 Y96E (antibody, name in Kabat numbering, V domains shown, one-arm format as m2) VH: QVQLVESGGGVVQPGRSLRLSCAASGFTFSNAWMHWVRQAPGKGLEWVAQIKAKSNNYATYYAESVKGRFTISRDDSKNSLYLQMNSLKTEDTAVYYCRYVHYGAYYGVDAWGQGTTVTVSS VL: DIVMTQSPLSLPVTPGEPASISCRSSQSLVHSNRNTYLHWYQQKPGQAPRLLIYKVSNRFSGVPDRFSGSGSGTDFTLKISRVEAEDVGVYYCGQGTQVPETFGQGTKLEIK |  | 0.17
GLS3000 Y32F (antibody, name in Kabat numbering, V domains shown, one-arm format as m2) VH: QVQLVESGGGVVQPGRSLRLSCAASGFTFSNAWMHWVRQAPGKGLEWVAQIKAKSNNYATYYAESVKGRFTISRDDSKNSLYLQMNSLKTEDTAVYYCRYVHYGAYYGVDAWGQGTTVTVSS VL: DIVMTQSPLSLPVTPGEPASISCRSSQSLVHSNRNTFLHWYQQKPGQAPRLLIYKVSNRFSGVPDRFSGSGSGTDFTLKISRVEAEDVGVYYCGQGTQVPYTFGQGTKLEIK |  | 0.29
GLS3000 Y32D (antibody, name in Kabat numbering, V domains shown, one-arm format as m2) VH: QVQLVESGGGVVQPGRSLRLSCAASGFTFSNAWMHWVRQAPGKGLEWVAQIKAKSNNYATYYAESVKGRFTISRDDSKNSLYLQMNSLKTEDTAVYYCRYVHYGAYYGVDAWGQGTTVTVSS VL: DIVMTQSPLSLPVTPGEPASISCRSSQSLVHSNRNTDLHWYQQKPGQAPRLLIYKVSNRFSGVPDRFSGSGSGTDFTLKISRVEAEDVGVYYCGQGTQVPYTFGQGTKLEIK |  | 0.23

Other lines, results leading:

ratio of amounts bound vs CE115HA000 (CD3ε homodimer protein [1]) | ratio of amounts bound (vs GLS3000) (CD3ε homodimer protein [2]) | Binder
 | 0.23 | GLS3000 Y96H (antibody, name in Kabat numbering, V domains shown, one-arm format as m2) VH: QVQLVESGGGVVQPGRSLRLSCAASGFTFSNAWMHWVRQAPGKGLEWVAQIKAKSNNYATYYAESVKGRFTISRDDSKNSLYLQMNSLKTEDTAVYYCRYVHYGAYYGVDAWGQGTTVTVSS VL: DIVMTQSPLSLPVTPGEPASISCRSSQSLVHSNRNTYLHWYQQKPGQAPRLLIYKVSNRFSGVPDRFSGSGSGTDFTLKISRVEAEDVGVYYCGQGTQVPHTFGQGTKLEIK
 | 0.24 | GLS3000 Y32P (antibody, name in Kabat numbering, V domains shown, one-arm format as m2) VH: QVQLVESGGGVVQPGRSLRLSCAASGFTFSNAWMHWVRQAPGKGLEWVAQIKAKSNNYATYYAESVKGRFTISRDDSKNSLYLQMNSLKTEDTAVYYCRYVHYGAYYGVDAWGQGTTVTVSS VL: DIVMTQSPLSLPVTPGEPASISCRSSQSLVHSNRNTPLHWYQQKPGQAPRLLIYKVSNRFSGVPDRFSGSGSGTDFTLKISRVEAEDVGVYYCGQGTQVPYTFGQGTKLEIK
0.51 |  | CE115HA000 A56D (antibody, name in Kabat numbering, V domains shown) VH: QVQLVESGGGVVQPGRSLRLSCAASGFTFSNAWMHWVRQAPGKGLEWVAQIKAKSNNYDTYYAESVKGRFTISRDDSKNSLYLQMNSLKTEDTAVYYCRYVHYGAYYGVDAWGQGTTVTVSS VL: DIVMTQSPLSLPVTPGEPASISCRSSQSLVHSNRNTYLHWYQQKPGQAPRLLIYKVSNRFSGVPDRFSGSGSGTDFTLKISRVEAEDVGVYYCGQGTQVPYTFGQGTKLEIK
1.34 |  | CE115HA000 A52aD (antibody, name in Kabat numbering, V domains shown) VH: QVQLVESGGGVVQPGRSLRLSCAASGFTFSNAWMHWVRQAPGKGLEWVAQIKDKSNNYATYYAESVKGRFTISRDDSKNSLYLQMNSLKTEDTAVYYCRYVHYGAYYGVDAWGQGTTVTVSS VL: DIVMTQSPLSLPVTPGEPASISCRSSQSLVHSNRNTYLHWYQQKPGQAPRLLIYKVSNRFSGVPDRFSGSGSGTDFTLKISRVEAEDVGVYYCGQGTQVPYTFGQGTKLEIK
0.57 |  | CE115HA000 A52aE (antibody, name in Kabat numbering, V domains shown) VH: QVQLVESGGGVVQPGRSLRLSCAASGFTFSNAWMHWVRQAPGKGLEWVAQIKEKSNNYATYYAESVKGRFTISRDDSKNSLYLQMNSLKTEDTAVYYCRYVHYGAYYGVDAWGQGTTVTVSS VL: DIVMTQSPLSLPVTPGEPASISCRSSQSLVHSNRNTYLHWYQQKPGQAPRLLIYKVSNRFSGVPDRFSGSGSGTDFTLKISRVEAEDVGVYYCGQGTQVPYTFGQGTKLEIK
 | 0.17 | GLS3000 Y96D (antibody, name in Kabat numbering, V domains shown, one-arm format as m2) VH: QVQLVESGGGVVQPGRSLRLSCAASGFTFSNAWMHWVRQAPGKGLEWVAQIKAKSNNYATYYAESVKGRFTISRDDSKNSLYLQMNSLKTEDTAVYYCRYVHYGAYYGVDAWGQGTTVTVSS VL: DIVMTQSPLSLPVTPGEPASISCRSSQSLVHSNRNTYLHWYQQKPGQAPRLLIYKVSNRFSGVPDRFSGSGSGTDFTLKISRVEAEDVGVYYCGQGTQVPDTFGQGTKLEIK
 | 0.58 | GLS3000 V94W (antibody, name in Kabat numbering, V domains shown, one-arm format as m2) VH: QVQLVESGGGVVQPGRSLRLSCAASGFTFSNAWMHWVRQAPGKGLEWVAQIKAKSNNYATYYAESVKGRFTISRDDSKNSLYLQMNSLKTEDTAVYYCRYVHYGAYYGVDAWGQGTTVTVSS VL: DIVMTQSPLSLPVTPGEPASISCRSSQSLVHSNRNTYLHWYQQKPGQAPRLLIYKVSNRFSGVPDRFSGSGSGTDFTLKISRVEAEDVGVYYCGQGTQWPYTFGQGTKLEIK
0.81 |  | CE115HA000 A52aG (antibody, name in Kabat numbering, V domains shown) VH: QVQLVESGGGVVQPGRSLRLSCAASGFTFSNAWMHWVRQAPGKGLEWVAQIKGKSNNYATYYAESVKGRFTISRDDSKNSLYLQMNSLKTEDTAVYYCRYVHYGAYYGVDAWGQGTTVTVSS VL: DIVMTQSPLSLPVTPGEPASISCRSSQSLVHSNRNTYLHWYQQKPGQAPRLLIYKVSNRFSGVPDRFSGSGSGTDFTLKISRVEAEDVGVYYCGQGTQVPYTFGQGTKLEIK
 | 1.17 | GLS3000 Y96F (antibody, name in Kabat numbering, V domains shown, one-arm format as m2) VH: QVQLVESGGGVVQPGRSLRLSCAASGFTFSNAWMHWVRQAPGKGLEWVAQIKAKSNNYATYYAESVKGRFTISRDDSKNSLYLQMNSLKTEDTAVYYCRYVHYGAYYGVDAWGQGTTVTVSS VL: DIVMTQSPLSLPVTPGEPASISCRSSQSLVHSNRNTYLHWYQQKPGQAPRLLIYKVSNRFSGVPDRFSGSGSGTDFTLKISRVEAEDVGVYYCGQGTQVPFTFGQGTKLEIK
 | 0.32 | GLS3000 Y96L (antibody, name in Kabat numbering, V domains shown, one-arm format as m2) VH: QVQLVESGGGVVQPGRSLRLSCAASGFTFSNAWMHWVRQAPGKGLEWVAQIKAKSNNYATYYAESVKGRFTISRDDSKNSLYLQMNSLKTEDTAVYYCRYVHYGAYYGVDAWGQGTTVTVSS VL: DIVMTQSPLSLPVTPGEPASISCRSSQSLVHSNRNTYLHWYQQKPGQAPRLLIYKVSNRFSGVPDRFSGSGSGTDFTLKISRVEAEDVGVYYCGQGTQVPLTFGQGTKLEIK
0.52 |  | CE115HA000 A52aV (antibody, name in Kabat numbering, V domains shown) VH: QVQLVESGGGVVQPGRSLRLSCAASGFTFSNAWMHWVRQAPGKGLEWVAQIKVKSNNYATYYAESVKGRFTISRDDSKNSLYLQMNSLKTEDTAVYYCRYVHYGAYYGVDAWGQGTTVTVSS VL: DIVMTQSPLSLPVTPGEPASISCRSSQSLVHSNRNTYLHWYQQKPGQAPRLLIYKVSNRFSGVPDRFSGSGSGTDFTLKISRVEAEDVGVYYCGQGTQVPYTFGQGTKLEIK
